The results in this text go back to US20240382677A1.

Where a chain is given by its changes, count along the chain named.

B1: H2aM7791N (antibody, mouse IgG2a, V domains shown)
VH: QMQLQQWGAGLLKPSETLSLTCVVYGGSLNGYYWSWIRQSPGKGLEWIGEIDHSGSTNYNPSLKNRVTMSVDTSKIQFSLKLTSVTVADTAVYYCAREGLLPFDYWGQGTLVTVSS
VL: EIVLTQSPGTLSLSPGERVTLSCRASQSVYSNYLAWYQQNPGQAPRLLIYAASNRATGIPDRFSGSGSGTDFTLTISRLEPEDFAVYYCHQYATSPWTFGQGTKVEIK
B2: H1M7789N (antibody, mouse IgG1, V domains shown)
VH: EVQLLESGGGLVQPGGSLRLSCSASGFTFSSYTMNWVRQAPGKGLEWVSGISDTGGNTYYTDSVKGRFTVSRDNSKNTLSLQMNSLRAEDTAVYYCAKDQGGSYPYYFHYWGQGSLVTVSS
VL: DIQMTQSPSSLSASVGDRVTITCRASQSISSYLIWYQQKPGTAPKFLIYAASSLQSGVPSRFSGCGSGTDFTLTISSLQPEDFATYYCQQSYSTPPITFGQGTRLEIK
B3: H2aM7780N (antibody, mouse IgG2a, V domains shown)
VH: QVQLVESGGGVVQSGRSLRLSCAASGFTFSSYGMHWVRQAPGKGLEWVAVIWYDGSNIYYSDSVKGRFTISRANSKNTLYLQMNSLRAEDTAVYYCARPGHWNYFFEYWGQGTLVTVSS
VL: B2 VL with S30N, S31N, I34N, T42K, F46L, A50T, C65S, I97L, R104Q
B4: H2aM7798N (antibody, mouse IgG2a, V domains shown)
VH: EVQLLESGGVLVQPGGSLRLSCAASGFTFSNFGMTWVRQAPGKGLEWVSGISGGGRDTYFADSVKGRFTISRDNSKNTLYLQMNSLKGEDTAVYYCVKWGNIYFDYWGQGTLVTVSS
VL: DIQMTQSPSSLSASVGDSITITCRASLSINTFLNWYQQKPGKAPNLLIYAASSLHGGVPSRFSGSGSGTDFTLTIRTLQPEDFATYYCQQSSNTPFTFGPGTVVDFR
B5: H2aM7796N (antibody, mouse IgG2a, V domains shown)
VH: QVQLVESGGGVVQPGRSLRLSCAASGFTFSSYGMHWVRQAPGKGLEWVAIIWSDGDSEYNLDSVKGRFTISRDNSKNTLYLQMNSLRVEDSAVYYCARDRDLEDIWGQGTMVTVSS
VL: DIQMTQSPSSLSASVGDRVTITCRASQGIRNDLGWYQQKPGKAPKRLIYAASNLQSGVPSRFSGSGSGTEFTLTISSLQPEDFATYYCLQHNSYPLTFGGGTKVEIK
B6: H2aM7795N (antibody, mouse IgG2a, V domains shown)
VH: EVQVVESGGGLVEPGRSLRLSCKASGFTFDDYAMHWVRQTPGKALEWVSGINWSGNNIGYADSVKGRFTISKDDAKNSLYLQMNSLRPEDTALYYCTKDISITGTLDAFDVWGQGTMVTVSS
VL: DIQMTQSPISVSASVGDRVTITCRASQGISNWLAWYQQKPGIAPKLLIYSASSLQSGVPSRFRGSGSGTDFTLTIGSLQPEDFATYYCQQAHSFPLTFGGGTKVEIK
B7: H4H7798N (antibody, human IgG4 S228P, kappa, V domains shown)
VH: B4 VH
VL: DIQMTQSPSSLSASVGDSITITCRASLSINTFLNWYQQKPGKAPNLLIYAASSLHGGVPSRFSGSGSGTDFTLTIRTLQPEDFATYYCQQSSNTPFTFGPGTVVDFRR
B8: H4H7795N2 (antibody, human IgG4 S228P, kappa, V domains shown)
VH: B6 VH with N52S
VL: DIQMTQSPISVSASVGDRVTITCRASQGISNWLAWYQQKPGIAPKLLIYSASSLQSGVPSRFRGSGSGTDFTLTIGSLQPEDFATYYCQQAHSFPLTFGGGTKVEIKR

One test concerns the target full length human PD-1 on HEK293/hPD-1 cells (human). The test can be described thus: FACS, 100 nM antibody.
Turning to B1, the ratio of HEK293/hPD-1 to HEK293 parental cells came to 18 fold.

As to B2, the ratio of HEK293/hPD-1 to HEK293 parental cells stood at 92.3 fold.

For the molecule B3, the ratio of HEK293/hPD-1 to HEK293 parental cells worked out at 73.8 fold.

As for B4, the ratio of HEK293/hPD-1 to HEK293 parental cells was 78.1 fold.

Consider B5, for which the ratio of HEK293/hPD-1 to HEK293 parental cells was 168 fold.

In the case of B6, the ratio of HEK293/hPD-1 to HEK293 parental cells amounted to 2.8 fold.

The target is the same in the next test. The test can be described thus: FACS dose response, HEK293/hPD-1 cells.
In turn, B3 came in with an EC50 of 1.69 nM and a Max Geom. Mean MFI @ 100 nM of 18400 MFI.

B4 came in with an EC50 of 0.0698 nM and a Max Geom. Mean MFI @ 100 nM of 20900 MFI.

Molecule B7 returned an EC50 of 0.509 nM and a Max Geom. Mean MFI @ 100 nM of 20300 MFI.

Consider B5, for which the EC50 is 4.81 nM and the Max Geom. Mean MFI @ 100 nM was found to be 14100 MFI.

For the next test the target is unchanged. In words: FACS, 100 nM antibody, HEK293/hPD-1 cells.
B1 came in with an MFI of 4950 MFI.

B2 yielded an MFI of 24200 MFI.

On to B3, for which the MFI turned out to be 23700 MFI.

Turning to B4, the MFI is 23400 MFI.

B5 returned an MFI of 49800 MFI.

B6 displayed an MFI of 817 MFI.

The next test has the same target. The test can be described thus: FACS dose response, HEK293/hPD-1 cells; EC50 Inconclusive.
For the molecule B2, the Max Geom. Mean MFI @ 100 nM came out at 35600 MFI.

On to B8, for which the Max Geom. Mean MFI @ 100 nM amounted to 15200 MFI.

Another test has the same target. The test can be described thus: FACS dose response, HEK293/hPD-1 cells; No EC50 determined.
B1 had a Max Geom. Mean MFI @ 100 nM of 1400 MFI.

With B5, the Max Geom. Mean MFI @ 100 nM was 624 MFI.
